According to article PMC5241119, “Structural snapshots of Xer recombination reveal activation by synaptic complex remodeling and DNA bending”:
Changes are numbered by the printed parent chain.

Experiments:
[1] = molecular target: Helicobacter pylori XerH recombinase, full-length wild type (Helicobacter pylori) (UniProt O25386); assay: crystal structure; XerH co-crystallised with nicked palindromic 'suicide' difHLP DNA (post-cleavage synaptic complex; two XerH and one DNA in the asymmetric unit, tetramer by crystallographic two-fold); well 0.1 M HEPES pH 7-8, 0.2 M MgCl2, 25-35% PEG 400; 6°C
[2] = molecular target: Helicobacter pylori XerH recombinase, full-length wild type (Helicobacter pylori) (UniProt O25386); assay: crystal structure; full-length wild-type XerH co-crystallised with a 30 bp difH DNA duplex (pre-cleavage synaptic complex: four XerH, two difH); protein:DNA 1.2:1; well 0.2 M NaCl, 20-25% PEG 3350; 6°C
XerH [3] = molecular target: T1, XerH (Helicobacter pylori strain 26995 (as …, UniProt O25386 1-362)); assay: X-ray crystallography; 2.1 A; pre-cleavage, pH 5.5, no metal; EMSA: 25 mM HEPES pH 7.5, 100 mM NaCl, 10 mM MgCl2, 5% glycerol, 1 mM DTT, 1 mM EDTA, 1 h at 30 C, 20 nM DNA, 0-360 nM XerH; SEC complexes prepared as for crystallization (dialysed to 25 mM Na acetate pH 5.5, 200 mM NaCl, 5% glycerol, 1 mM DTT); details: protein: recombinant; tags: His6-SUMO N-terminal, removed with SenP2; blunt ends, terminal G:A mismatch at strand 1 position 1 as printed; two duplexes per complex
T1 sequence: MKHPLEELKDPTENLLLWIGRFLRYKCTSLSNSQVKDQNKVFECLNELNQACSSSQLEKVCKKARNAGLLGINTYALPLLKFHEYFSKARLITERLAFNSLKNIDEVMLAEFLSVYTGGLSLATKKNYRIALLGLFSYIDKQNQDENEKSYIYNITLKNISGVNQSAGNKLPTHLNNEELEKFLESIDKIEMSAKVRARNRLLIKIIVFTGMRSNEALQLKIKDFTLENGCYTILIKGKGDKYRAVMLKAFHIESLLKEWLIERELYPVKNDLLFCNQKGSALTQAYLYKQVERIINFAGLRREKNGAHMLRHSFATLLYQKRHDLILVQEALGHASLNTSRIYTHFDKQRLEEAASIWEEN

XerH [4] = molecular target: T1, XerH; assay: EMSA; 10 mM Mg2+; all complex species summed; EMSA: 25 mM HEPES pH 7.5, 100 mM NaCl, 10 mM MgCl2, 5% glycerol, 1 mM DTT, 1 mM EDTA, 1 h at 30 C, 20 nM DNA, 0-360 nM XerH; SEC complexes prepared as for crystallization (dialysed to 25 mM Na acetate pH 5.5, 200 mM NaCl, 5% glycerol, 1 mM DTT); details: protein: recombinant; tags: His6-SUMO N-terminal, removed with SenP2; label: 5'-32P; blunt
XerH [5] = molecular target: T1, XerH; assay: analytical SEC; EMSA: 25 mM HEPES pH 7.5, 100 mM NaCl, 10 mM MgCl2, 5% glycerol, 1 mM DTT, 1 mM EDTA, 1 h at 30 C, 20 nM DNA, 0-360 nM XerH; SEC complexes prepared as for crystallization (dialysed to 25 mM Na acetate pH 5.5, 200 mM NaCl, 5% glycerol, 1 mM DTT); details: protein: recombinant, tags: His6-SUMO N-terminal, removed with SenP2, blunt
XerH K290S = XerH K290S (Helicobacter pylori strain 26995 (as …, UniProt O25386 1-362, K290S)); assay: EMSA; K290S does not affect difH binding; EMSA: 25 mM HEPES pH 7.5, 100 mM NaCl, 10 mM MgCl2, 5% glycerol, 1 mM DTT, 1 mM EDTA, 1 h at 30 C, 20 nM DNA, 0-360 nM XerH; SEC complexes prepared as for crystallization (dialysed to 25 mM Na acetate pH 5.5, 200 mM NaCl, 5% glycerol, 1 mM DTT); details: protein: recombinant; tags: His6-SUMO N-terminal, removed with SenP2; label: 5'-32P; blunt
XerH [6] = molecular target: T1, XerH; assay: analytical SEC; no shift in retention; EMSA: 25 mM HEPES pH 7.5, 100 mM NaCl, 10 mM MgCl2, 5% glycerol, 1 mM DTT, 1 mM EDTA, 1 h at 30 C, 20 nM DNA, 0-360 nM XerH; SEC complexes prepared as for crystallization (dialysed to 25 mM Na acetate pH 5.5, 200 mM NaCl, 5% glycerol, 1 mM DTT); details: protein: recombinant; tags: His6-SUMO N-terminal, removed with SenP2; blunt, self-complementary, 2 copies of one strand

“Helicobacter pylori XerH recombinase, full-length wild type (from UniProt O25386 1-362) (enzyme)” gave a stoichiometry N [1] of 4 and a stoichiometry N [2] of 4.

B1: difH 30 bp (pre-cleavage crystal) (dsDNA)
DNA 1: GAGTTATGAAAACTGCACTTTTCAAACTTT
DNA 2: AAAGTTTGAAAAGTGCAGTTTTCATAACTA
B1: binds (XerH [3]).

B2: difHL 50 bp (left arm, right arm replaced by random) (dsDNA)
DNA 1: TAAATTCATTTAGTTATGAAAACTGCACTTAAATCAAACCATTTAAATAA
DNA 2: TTATTTAAATGGTTTGATTTAAGTGCAGTTTTCATAACTAAATGAATTTA
Molecule B2 has a Kd (XerH [4]) of 180 nM.

B3: difHLP (left-arm palindrome, 30 bp) (dsDNA)
DNA 1: TAGTTATGAAAACTGCAGTTTTCATAACTA
DNA 2: B3 DNA 1
B3: binds (XerH [5]; self-complementary, 2 copies of one strand).

B4: difHR 50 bp (right arm, left arm replaced by random) (dsDNA)
DNA 1: CATATTTTTCCTTTTAAATTCACTGCACTTTTCAAACTTTTAAATCAAAC
DNA 2: GTTTGATTTAAAAGTTTGAAAAGTGCAGTGAATTTAAAAGGAAAAATATG
B4 showed a Kd (XerH [4]) of 230 nM.

B5: difH 30 bp (SEC) (dsDNA)
DNA 1: B1 DNA 1 with G1T
DNA 2: B1 DNA 2
B5: binds (XerH [5]).

B6: difH 50 bp (dsDNA)
DNA 1: TAAATTCATTTAGTTATGAAAACTGCACTTTTCAAACTTTTAAATCAAAC
DNA 2: GTTTGATTTAAAAGTTTGAAAAGTGCAGTTTTCATAACTAAATGAATTTA
B6 was tested, and the Kd (XerH [4]) was 150 nM and the binding result (XerH K290S) was “binds”.

B7: difHRP (right-arm palindrome, 30 bp) (dsDNA)
DNA 1: AAAGTTTGAAAAGTGCACTTTTCAAACTTT
DNA 2: B7 DNA 1
B7: no binding (XerH [6]).
